Reference: PMC3563628, “Prevalence, Specificity and Determinants of Lipid-Interacting PDZ Domains from an In-Cell Screen and In Vitro Binding Experiments” (PLoS ONE, 2013)

Experiments:
[1] = SPR equilibrium binding of his-tagged PDZ domains to various PtdInsPs species; details: recombinant PDZ domain over PtdInsPs liposomes
[2] = target: C-terminal peptide of usher (FTDTHL); test: Equilibrium peptide binding titration followed by intrinsic tryptophan fluorescence; details: Y167W mutation introduced as fluorescent probe; protein 3 µM; 25°C, pH 7.2
Excerpt: Given the overall low PtdInsPs specificities, and often modest PtdInsPs affinities, it is unlikely that PtdInsPs bindings alone target the PDZ domains to their defined subcellular compartments. Plausibly, peptide interactions are also involved in controlling the subcellular targeting. To address the interplay between PtdInsPs and peptide-binding we chose DFNB31_1 and CASK as models, taking two of the PDZ domains with well-defined cognate peptides. Cognate peptide ligands were the C-terminal peptides of usher (FTDTHL) for DFNB31_1 [50] and the TKEFYA peptide of syndecan-2 for CASK [51]. We measured the PDZ-peptide affinities by a fluorescence-based approach (Fig. 4E), by engineering Trp into the PDZ scaffolds and following the interactions by changes in intrinsic fluorescence, a strategy previously established for other PDZ domains (KD-values: DFNB31_1/Y167W for FTDTHL 46±6 µM; CASK/I157W for TKEFYA 280±20 µM), [52]. We then determined the apparent PtdIns(4,5)P2 affinities in presence of a (close to) saturating concentration of respective peptide (1 mM). The FTDTHL peptide appeared to compete for DFNB31_1-PtdIns(4,5)P2 interactions (KD ^PtdIns(4,5)P2 in presence of peptide >30 µM, Fig. 4F), which might indicate overlapping binding sites. […] We have previously reported on competitive binding by peptide and PtdIns(4,5)P2 with CASK [13]. However, in these experiments the peptide was linked to sepharose beads and PtdIns(4,5)P2 was present on micelles, which made it more difficult for the PDZ domain to simultaneously interact with the two ligands.
Spectrofluorimetric measurements were performed at 25°C in 25 mM HEPES, 150 mM NaCl, pH 7.2 and 1 mM beta-mercaptoethanol in a Carry Eclipse Spectrofluorimeter (Varian). The peptides corresponded to the C-termini of syndecan-2 (TKEFYA) and usher (FTDTHL) and were of high purity (purity >95%, GeneCust), and the experiment were performed and analyzed as described previously. Urea induced equilibrium unfolding experiments were performed using 1 µM of proteins (excitation 280 nm emission 320–380 nm) and the data fitted by a standard two-state model.

[3] = SPR binding to PS liposomes; details: 10% PS in DOPC, 100% DOPC as reference
Excerpt: (§1) As an alternative in vitro approach we performed lipid blot assays using commercially available membranes pre-spotted with PtdIns, PtdIns4P, PtdIns(4,5)P2 and PtdIns(3,4,5)P3 as well as other abundant lipids (Fig. 4B–C). IL16_3 and PDZD2_3, were excluded from this analysis due to their high binding to the blank immobilized spot. […] Other PtdInsPs-PDZ interactions were confirmed. Discrepancy between SPR and lipid blot approaches can be easily explained by the fact that the latter method is highly koff-dependent. […] We therefore performed SPR experiments with five selected PDZ domains (CASK, DFNB31_1, MAGI1_6, MAGI3_3 and SLC9A3R2_1) and two selected lipids, PS and PE, embedded in DOPC liposomes (10% PS or 40% PE in a DOPC using 100% DOPC as reference). […] We have previously reported that weak electrostatic interactions with PS reinforce the interactions of the second PDZ domain of Polychaetoid with PtdIns(4,5)P2 containing liposomes. We therefore investigated, for the same five PDZ domains, how the apparent PtdIns(4,5)P2 affinities were affected by presenting the lipid in the background of liposomes mimicking biological membrane lipid composition ([…], 20% PS, 40% PE and 5% PtdIns(4,5)P2).
(§2) SPR experiments were performed in a BiacoreT100 (GE Healthcare) at 25°C in 25 mM HEPES, 150 mM NaCl, pH 7.2 and 1 mM beta-mercaptoethanol with a flow rate of 30 µl/min. […]

[4] = SPR binding to PE liposomes; details: 40% PE in DOPC, 100% DOPC as reference
Excerpt: as §1, §2

[5] = SPR equilibrium binding of his-tagged PDZ domains to PtdIns(4,5)P2 liposomes; details: SPR equilibrium analysis, 5% PtdIns(4,5)P2 in DOPC liposomes, 25°C, pH 7.2; read-out: KD app PtdIns(4,5)P2
[6] = SPR binding to PtdIns(4,5)P2 in composite liposomes mimicking biological membrane; details: 30% PC, 20% PS, 40% PE and 5% PtdIns(4,5)P2
Excerpt: as §1, §2

B1: DFNB31_1: recombinant his-tagged first PDZ domain of human DFNB31 (protein)
chain: GEVRLVSLRRAKAHEGLGFSIRGGSEHGVGIYVSLVEPGSLAEKEGLRVGDQILRVNDKSLARVTHAEAVKALKGSKKLVLSVYSAGRI
modifications: left off: His6, N-terminal, state not stated
notes: recombinant his-tagged first PDZ domain of human DFNB31
Question: What does the source list for B1?
Answer: PtdInsPs binding in vitro, in words [1]: high-affinities; Kd [2]: 46 ± 6 µM; PS binding, in words [3]: low affinity interactions; PE binding, in words [4]: did not observe any detectable PDZ-PE binding; Kd [5]: 7.8 ± 2 µM; Kd [6]: 2.7 ± 1 µM
